In patent US11535851B2, “Reagents for treatment of hepatitis B virus (HBV) infection and use thereof” (priority 2016, dated 2022):

Assays:
[1] = test system: Luciferase reporter constructs carrying effector or effector complement sequences (HBV transcripts); experiment: Dual-luciferase reporter assay (strand preference activity) in HEK293 cells; type: cell-based; conditions: FIG. 1A; for activity of constructs in luciferase reporter assay: compared directly to corresponding shRNA constructs; for antisense (effector) strand activity (strand preference activity): relative to shRNA expressing counterparts
Method: Efficacy of the ddRNAi constructs expressing shmiRs or shRNAs of the disclosure to knockdown HBV transcripts is determined using dual-luciferase reporter assays in HEK293 cells.
Plasmid reporter constructs based on the pGL3 Luciferase Reporter Vector are constructed for effector and effector complement sequences from each of the shmiRs and shRNAs of the disclosure. Luciferase reporter constructs e.g., firefly luciferase reporter constructs, are generated by inserting the respective effector sequence or effector complement sequence of the shmiRs or shRNAs (as appropriate) with 20 bp flanking sequences at each end into the pGL3-control vector (Promega, Madison, Wis.). The inserts are subcloned using FseI and XbaI restriction enzyme sites following the luciferase reporter gene.
The dual-luciferase reporter assays are performed in HEK293 cells (ATCC). The HEK293 cells are cultured in DMEM medium containing 10% fetal bovine serum, 2 mM glutamine, penicillin (100 U/mL), and streptomycin (100 μg/mL) at 37° C. humid incubator with 5% CO2. The HEK293 cell are seeded at a density of 2×10^4 cells per well into 96-well culture plate one day prior to transfection.
ddRNAi expression constructs described in Example 1 (i.e., ddRNAi constructs designated HBV-shmiR1 to HBV-shmiR16, HBV-shmiRx3-v1 and HBV-shmiRx3-v2) are synthesized and inserted into an appropriate plasmid vector e.g., a pSsh vector, optionally with a proximal sequence element 7 (PSE7) for constructs expressing shRNAs.
Expression vectors comprising the ddRNAi expression constructs are co-transfected into HEK293 cells with a Luciferase reporter construct e.g., a firefly luciferase reporter construct, expressing an effector sequence or effector complement sequence of the corresponding shmiR or shRNA (as appropriate) at a ratio of 10:1 (ddRNAi expression construct: Luciferase reporter construct) using 0.3 uL of Lipofectamine 2000 reagent (Life Technologies, Carlsbad, Calif.) according to manufacturer's instructions. Cells are also transfected with 1 ng of a Renilla reporter construct (serving as a transfection control). 48 hour post-transfection, cell lysates are collected and analyzed using Dual Luciferase Reporter Assay System (Promega, Madison, Wis.). The firefly/Renilla activity ratios are determined for each transfection. Percentage inhibition of reporter expression is calculated relative to a negative control e.g., a construct expressing a random non-targeting sequence. The experiment is performed in replicate.
In addition, the three ddRNAi shmiR constructs (i.e., the ddRNAi shmiR constructs expressing shmiR6, shmiR15 and shmiR12 respectively) were compared for strand preference activity relative to their shRNA expressing counterparts.
The influence of addition of an ‘A’ nucleotide at the 3′ end or a ‘G’ nucleotide at the 5′ end of the sense sequence on thermodynamics of the shmiR variant was also assessed. The idea is to allow for the antisense (or effector) strand to be preferentially loaded into the RISC complex for functional RNAi activity.

[2] = test system: HBV transcripts at regions corresponding to HBsAg, HBcAg and HbxAg; experiment: Inhibition of HBV transcripts in HepG2.2.15 cells transduced with AdV vectors (RT-qPCR, relative to GAPDH mRNA); type: cell-based, HBV (serotype ayw, genotype D); conditions: HepG2.2.15, MOI of 100, 3, 4, 5 and 6 days after infection; versus corresponding shRNA constructs; FIG. 4
Method: Levels of inhibition of HBV transcripts at regions corresponding to HBV antigens HBsAg, HBcAg and HbxAg, relative to levels of GAPDH mRNA, are determined by normalizing the respective HBV mRNA transcript levels to GAPDH mRNA for each sample. Briefly, 100 ng of total RNA is used to synthesize cDNA using High Capacity cDNA Reverse Transcription Kit (Life Technologies, Carlsbad, Calif.) according to manufacturer instructions. Quantitative PCR amplifications of regions within HBV antigens HBsAg, HBcAg, HbxAg, and GAPDH is then performed using Power SYBR Green PCR Master Mix (Life Technologies) and the primer sets listed in Table 1. Standard real-time PCR conditions are used: initial denaturation at 95° C. for 10 min followed by 40 cycles of 95° C. for 15 sec and 60° C. for 1 min. […]
Levels of inhibition of HBV transcripts at regions corresponding to HBV antigens HBsAg, HBcAg and HbxAg, relative to levels of GAPDH mRNA, were determined according to the method described in Example 5.
Levels of inhibition of HBV transcripts at regions corresponding to HBV antigens HBsAg, HBcAg and HbxAg, relative to levels of GAPDH mRNA, for each shmiR of the disclosure (expressed individually, or as part of a triple construct), was determined at an MOI of 100 at 3, 4, 5 and 6 days after infection with HBV shmir or shRNA AdV vectors.

HepG2.2.15 cells = experiment: RNAi effector molecules (copies per cell) in HepG2.2.15 cells transduced with AdV vectors; type: cell-based, human; conditions: HepG2.2.15, AdV vectors MOI 100, days 3-6; versus corresponding shRNA; FIG. 3
Method: Single and triple shmiR or shRNA AdV vectors were prepared by subcloning the ddRNAi expression constructs described in Example 1 (i.e., ddRNAi constructs designated HBV-shmiR1 to HBV-shmiR16, HBV-shRNA1-HBV-shRNA16, HBV-shmiRx3-v1, HBV-shmiRx3-v2 and HBV-shRNAx3-v1) into a adenovirus (AdV) construct for virus production (Vector Biolabs, Malvern Pa.).
HepG2.2.15 cells were infected with the HBV shmiR AdV vectors or HBV shRNA AdV vectors in cell suspension and cultured on multi-well plates. Each well contained a suspension of approximately 1.25×10^5 HepG2.2.15 cells and one of the single or triple HBV shmiR AdV vectors, or one of the single or triple HBV shRNA AdV vectors, at MOI-100. Following transduction, cells were cultured at 37° C. at 5% CO2 for 3-7 days and harvested for total RNA isolation using Qiagen miRNeasy mini kit (Valencia, Calif.) at 3, 4, 5, and 6 days post-transfection.
Total RNAs were quantified using the NanoDrop 1000 Spectrophotometer (Thermo Scientific) and then diluted to a working concentration of 10 ng/μl.
RNAi effector molecules expressed as copies per cell were determined for shmiR-12 and shmiR-15 (FIGS. 3A and 3B, respectively) when expressed in HepG2.2.15 cells from single or triple HBV shmiR AdV vector(s) using Qiagen's miScript PCR system (designed to quantitate RNA effector molecules processed from shmiR or shRNA). […]

B1: shmiR-12: shmiR targeting HBV; RNA SEQ ID NO: 54, encoded by DNA SEQ ID NO: 70 (nucleic acid)
chain: GGUAUAUUGCUGUUGACAGUGAGCGAGUCCCGUCGGCGCUGAAUCCACUGUGAAGCAGAUGGGUGGAUUCAGCGCCGACGGGACGCGCCUACUGCCUCGGACUUCAA
modifications: expressed or natural sequence
[1]
  activity of constructs in luciferase reporter assay: more effective than the corresponding shRNA constructs
  antisense (effector) strand activity (strand preference activity): higher antisense (effector) strand activity relative to the corresponding shRNAs
[2]
  silencing of HBV RNAs (HBsAg, HBcAg, HbxAg regions): greater silencing of HBV RNAs compared to the corresponding shRNA expressing constructs
HepG2.2.15 cells
  levels of effector RNAi molecule (copies per cell): higher than the corresponding shRNAs

B2: shmiR-6: shmiR targeting HBV; RNA SEQ ID NO: 48, encoded by DNA SEQ ID NO: 64 (nucleic acid)
chain: GGUAUAUUGCUGUUGACAGUGAGCGACAGGUCCCCUAGAAGAAGAAACUGUGAAGCAGAUGGGUUUCUUCUUCUAGGGGACCUGCCGCCUACUGCCUCGGACUUCAA
modifications: expressed or natural sequence
[1]
  activity of constructs in luciferase reporter assay: more effective than the corresponding shRNA constructs
  antisense (effector) strand activity (strand preference activity): higher antisense (effector) strand activity relative to the corresponding shRNAs

B3: shmiR-15: shmiR targeting HBV; RNA SEQ ID NO: 57, encoded by DNA SEQ ID NO: 73 (nucleic acid)
chain: GGUAUAUUGCUGUUGACAGUGAGCGAAGUGGUUCGUAGGGCUUUCCACUGUGAAGCAGAUGGGUGGAAAGCCCUACGAACCACUGCGCCUACUGCCUCGGACUUCAA
modifications: expressed or natural sequence
[1]
  activity of constructs in luciferase reporter assay: more effective than the corresponding shRNA constructs
  antisense (effector) strand activity (strand preference activity): higher antisense (effector) strand activity relative to the corresponding shRNAs
[2]
  silencing of HBV RNAs (HBsAg, HBcAg, HbxAg regions): greater silencing of HBV RNAs compared to the corresponding shRNA expressing constructs
HepG2.2.15 cells
  levels of effector RNAi molecule (copies per cell): higher than the corresponding shRNAs
